Reference: article PMC4350284

Tests used:
STAT5A = STAT5A (UniProt P42230); assay: biotin-peptide precipitation from lysate, GFP blot; conditions: reference: non-phosphorylated Src peptide; sites Y416
STAT5A-eYFP (murine) = STAT5A-eYFP (murine) (UniProt P42230)

Substance	binding against the reference (STAT5A)	subcellular distribution of STAT5A-eYFP in HeLa T-REx FRT cells expressing vSrc^Y416F-dsRed, nucleus/cytoplasm (n/c) ratio (STAT5A-eYFP (murine))
Src-peptide (activation loop of cSrc (vSrc), Yes and Fyn) (from UniProt P00523) pY416 Src peptide	gained	–
vSrc^Y416F-dsRed (from UniProt P00524 1-526) (enzyme)	–	1
